For the experiment, the target named is T1, GST-17NAnk (GST-tagged N-terminal (1–305) zDHHC17) (murine, UniProt Q80TN5 1-305).
T1 construct: zDHHC17, murine cDNA, N-terminal residues 1–305 with the AR domain; also called GST-17Ank; GST-tagged AR-containing cytosolic region of zDHHC17; source: E. coli BL21(DE3)pLysS, purified (glutathione resin)
T1 sequence (looked up): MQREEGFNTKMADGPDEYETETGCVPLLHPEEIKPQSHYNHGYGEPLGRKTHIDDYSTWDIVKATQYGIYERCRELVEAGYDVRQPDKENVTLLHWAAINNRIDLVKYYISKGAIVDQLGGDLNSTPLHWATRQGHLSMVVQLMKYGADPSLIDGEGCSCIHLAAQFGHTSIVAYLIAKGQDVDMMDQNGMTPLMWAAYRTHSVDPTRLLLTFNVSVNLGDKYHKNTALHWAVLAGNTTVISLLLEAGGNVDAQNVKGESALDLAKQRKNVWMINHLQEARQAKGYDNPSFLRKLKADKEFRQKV
Nature of the experiment: pull-down; 20 μg GST-17NAnk (or GST) on 10 μl glutathione-Sepharose, 20 μg His6-CSPα or His6-SNAP25b(93–206) (and competing amounts of the other), overnight at 4 °C, PBS washes, Coomassie staining. To be noted: both partners purified.

B1: His6-CSPα (natural protein, bovine, UniProt Q29455 1-198, looked up)
chain: MADQRQRSLSTSGESLYHVLGLDKNATSDDIKKSYRKLALKYHPDKNPDNPEAADKFKEINNAHAILTDATKRNIYDKYGSLGLYVAEQFGEENVNTYFVLSSWWAKALFIFCGLLTCCYCCCCLCCCFNCCCGKCKPKAPEGEETEFYVSPEDLEAQLQSDEREAADTPIVIQPASATETTQLTADSHPSYHTDGFN
notes: CSPα, bovine cDNA; also called His-tagged CSPα; source: E. coli BL21(DE3)pLysS, purified (Ni2+-NTA)
Turning to B1, the binding result was “binds”.

Values taken from paper PMC4571948, “Identification of a Novel Sequence Motif Recognized by the Ankyrin Repeat Domain of zDHHC17/13 S-Acyltransferases*” (The Journal of Biological Chemistry, 2015).
